Holding throughout (experiment): peptide dot matrix ELISA
The target of one assay is T1, pep12 (cysteine pairing not given here).
T1 peptide: DHGSCVRACGADSYEMK(Biotin)

A further assay has as its target T2, pep32 (cysteine pairing not given here).
T2 peptide: VRKCKKCEGPCRKVCNK(Biotin)

For a further assay, the target named is T3, pep30 (cysteine pairing not given here).
T3 peptide: DGVRKCKKCEGPCRKVK(Biotin)

Another assay concerns the target T4, pep25 (cysteine pairing not given here).
T4 peptide: YEMEEDGVRKCKKCEGK(Biotin)

In a further assay the target is T5, pep19.
T5 peptide: ACGADSYEMEEDGVRKK(Biotin)

The target in the next assay is T6, pep03.
T6 peptide: EKKGNYVVTDHGSCVRK(Biotin)

The target in the next assay is T7, pep09 (cysteine pairing not given here).
T7 peptide: VVTDHGSCVRACGADSK(Biotin)

A further assay addresses T8, pep23 (cysteine pairing not given here).
T8 peptide: DSYEMEEDGVRKCKKCK(Biotin)

In the next assay the target is T9, pep11 (cysteine pairing not given here).
T9 peptide: TDHGSCVRACGADSYEK(Biotin)

The target in the next assay is T10, pep29 (cysteine pairing not given here).
T10 peptide: EDGVRKCKKCEGPCRKK(Biotin)

For a further assay, the target named is T11, pep24 (cysteine pairing not given here).
T11 peptide: SYEMEEDGVRKCKKCEK(Biotin)

The target of a further assay is T12, pep31 (cysteine pairing not given here).
T12 peptide: GVRKCKKCEGPCRKVCK(Biotin)

Another assay concerns the target T13, pep17.
T13 peptide: VRACGADSYEMEEDGVK(Biotin)

Another assay addresses T14, pep10 (cysteine pairing not given here).
T14 peptide: VTDHGSCVRACGADSYK(Biotin)

In a further assay the target is T15, pep08 (cysteine pairing not given here).
T15 peptide: YVVTDHGSCVRACGADK(Biotin)

The target of another assay is T16, pep34 (cysteine pairing not given here).
T16 peptide: KCKKCEGPCRKVCNGIK(Biotin)

The next assay has as its target T17, pep01.
T17 peptide: LEEKKGNYVVTDHGSCK(Biotin)

The target of another assay is T18, pep22.
T18 peptide: ADSYEMEEDGVRKCKKK(Biotin)

Another assay addresses T19, pep02.
T19 peptide: EEKKGNYVVTDHGSCVK(Biotin)

Ends that are not written are not given here. * marks the point of attachment. Biotin = O=C1N[C@H]2[C@H](CS[C@H]2CCCCC(=O)*)N1

B1: Chimeric antibody 64F1 (antibody, V domains shown)
VH: QVQLQQSGAELARPGASVKMSCKASGYTFSSYTMHWAKQRPGQGLEWIGYINPSSGYTKYNQKFKDKATLTADKSSSTAYMQLSSLTSEDSIVYYCARGGGRGFAYWGQGTLVTVSA
VL: QIVLTQSPAIMSASPGERVTMTCSASSSVSYMYWYQQKPGSSPRLLIYDTSNLASGVPVRFSGSGSGTSYSLTISRVEAEDAATYYCQQWSSYSLTFGAGTKLELK
notes: also called 64F1F8 chimeric
B1: the ELISA signal with pep12 worked out at 0.05; with pep32, 0.06; with pep30 it was 0.06; with pep25 it was 0.06; with pep19 it was 0.05; with pep03, 0.05. Moreover, the ELISA signal with pep09 was determined as 0.05; with pep23 it was 0.07; with pep11, 0.05; with pep29 it was 0.06; with pep24, 0.06; with pep31 it was 0.06. Besides, the ELISA signal with pep17 stood at 0.05; with pep10, 0.05; in the assay with pep08 it was 0.05; with pep34, 0.07; in the assay with pep01, 0.05; with pep22 it was 0.08. In the assay with pep02, the ELISA signal stood at 0.05.
